Drawing on paper PMC2677547, this text covers CAV-2 virion uptake in MNs after pre-incubation with saturating concentrations of recombinant FK (blocks CAV-2 virion with CAR) for one substance.

This test has as its target Coxsackievirus and adenovirus receptor (CAR), endogenous on rat spinal cord motor neurons (rat (endogenous in spinal cord motor neurons)) (UniProt Q9R066).
Chain of UniProt Q9R066 (Q9R066 20-365): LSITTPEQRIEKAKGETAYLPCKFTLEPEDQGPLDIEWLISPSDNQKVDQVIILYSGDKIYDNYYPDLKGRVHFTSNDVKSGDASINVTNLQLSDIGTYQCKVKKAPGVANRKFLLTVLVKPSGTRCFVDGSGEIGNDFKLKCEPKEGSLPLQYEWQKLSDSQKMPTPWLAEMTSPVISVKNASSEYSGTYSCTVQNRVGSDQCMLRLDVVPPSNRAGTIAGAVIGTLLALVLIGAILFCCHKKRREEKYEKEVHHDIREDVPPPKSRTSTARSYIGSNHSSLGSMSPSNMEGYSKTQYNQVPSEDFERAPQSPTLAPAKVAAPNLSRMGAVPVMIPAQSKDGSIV

Take “CAV-2 fibre knob, unlabelled recombinant (FK) (domain or fragment)”: the CAV-2 virion uptake in MNs after pre-incubation with saturating concentrations of recombinant FK (blocks CAV-2 virion with CAR) is 76%.
